Assay results taken from a protein production outcome set (Wang et al. 2014).

Assay: label from the status in PepcDB records

Sequence: MSQSKEDKIRSILEAKNIKSNFQNKENLSEFNEKKASKRAEDLLDVYYNTLSTADMEFPYWYNREYRKSDGDIPVVRRAKALKAAFSHMTPNIIPGEKIVMQKTRHYRGSFPMPWVSESFFVAQGEQMREEAKKLASNTADELTKFGSGGGNVTESFGNVVSIAGKFGMRKEEVPVLVKMAKEWVGKSVEDLGFHYEKMMPDYDLKENLMSTLICMFDSGYTLPQGREVINYFYPLNYGLDGIIEMAKECKKAVAGNASGDGLIGMDRLYFYEAVIQVIEGLQTWILNYAKHAKYLESIETDLEAKKEYSDLVEILEHIAHKQPRTFREALQLTYTIHIASVNEDAISGMSIGRFGQILYPWYEQDIEKGLITKEEVIELLELYRIKITCIDCFASAGVNGGVLSGNTFNTLSIGGLKEDGSTGANELEELLLEASMRCRTPQPSLTMLYDEKLPEDFLMKAAECTKLGSGYPAWVNNSNGTTFMMKQFADEGMTVEEARAFALGGCLETSPGCWKQLTLNGKTYSIAGGAGQSAGSGVHFIANPKILELVLMNGKDYRMNIQVFEPHNKPLDTYEEVIEVFKDYYKQAINVLERANNIELDIWRKFDTSIINSLLKPDCLDKGQHIGNMGYRYNATLNVETCGTVTMVNSFAALKKLVYDDKAFTIEEMKDAILNNFGFKDALEVGNYSMADQVKVDKTGKYDAIYKACLDAPKYGNNDLYADNILKNYEVWLSKVCEEAQSLYAKKMYPCQISVSTHGPQGAATLATPDGRLSGTTYSDGSVSAYAGTDKNGVYALFESATIWDQAVVQNSQMNLKLHPTTIKGQQGTKKLLDLTRSYLRKGGFHIQYNVVDSETLKDAQKNPDNYRQLMVRVAGFTQYWCELGKPIQDEVIARTEYEGV
- protein production: failed

Sequence: MGIDELYKKEFGIVAGVDEAGRGCLAGPVVAAAVVLEKEIEGINDSKQLSPAKRERLLDEIMEKAAVGIGIASPEEIDLYNIFNATKLAMNRALENLSVKPSFVLVDGKGIELSVPGTCLVKGDQKSKLIGAASIVAKVFRDRLMSEFHRMYPQFSFHKHKGYATKEHLNEIRKNGVLPIHRLSFEPVLELLTDDLLREFFEKGLISENRFERILNLLGARKSVVFRKERTNHNLPLF
- protein production: not failed

Sequence: MATPPFDPSLSPLKTVAVIGLGTMGTGIAEVLARAGREVVGIDISEAAAGHAVTALEASTARAVQRERLTEQERGDILARFRTFTDLQAAADADLVIEVTPESYEIKQQVLRALDGIVRADTILATGTNALSVTRLAADSAHPERVLGLHFFNPAPAMKLVEVVSSVLTAPTAVAAVTNLALDLGKEPVAVGDRPGFVADGLLFGYLNQAAAMYEAKYASREDIDAAMKLGCGLPMGPLALLDLIGVDTARTVLEAMYAESRDRLHAPAPILKQLSEAGLTGRKSGRGFYSYDEPGSATVVRDALTPLSGGPGEQGRTVRSVGVAGSGTMASGIAEVFAKAGYEVVLAARSEEKAQTAKARIGKSLSRSVDKGRLTAEAAAETLDRITPAGSYDAFADVDLALEAVAEDLEIKQQLFATFDKVCKPGAILATTTSSLPVVACARATSRPQDVIGMHFFNPAPAMKLVEVVRTVLTGDDVHATVREVCAKIRKHPVDCGDRAGFIVNALLFPYLNNAIKMVQEHYATLDDIDAAMKLGGGYPMGPFELLDVVGLDVSLAIEKVLHREFRDPGLAPAPLLEHLVAAGCLGRKTGRGFREYAKR
- protein production: failed

Sequence: MRIEAAELRILELPLKFRFETSFGVQTKRTILLLRLFGEGLEGLGEGVMERLPLYREETVAGARYLLEEVFLPRVLGRDLPNPEALREALAPFRGNPMAKAVLEMAFFDLWAKALGRPLWQVLGGVRQAVEVGVSLGIQPSVEDTLRVVERHLEEGYRRIKLKIKPGWDYEVLKAVREAFPEATLTADANSAYSLANLAQLKRLDELRLDYIEQPLAYDDLLDHAKLQRELSTPICLDESLTGAEKARKAIELGAGRVFNVKPARLGGHGESLRVHALAESAGIPLWMGGMLEAGVGRAHNLHLATLPGFTKPGDVSSASRYWEEDIVEEALEAKDGLMPVPEGVGIGVHLKLPFVERVTLWQRYMSAS
- protein production: not failed

Sequence: MYSELKEGVNLYNKKDYQEALVFFLSVSTEDVLIKIEINYYIGLIYSRLSEYEQALEYLEQVVTASKDIAKVYQCRLILAFIYANTGRTRLAEFELSKLIEAGYESVQVFSSLAYVYYEHHEIEKAIDYYEKALKTAPENSTALNGLAYILAETDRDLTRSLLLCKKAVEKQPENPAYLDSMALIYHKMNLPSEAKSYITRAKEKLPDNKIILKHFEMISSDAREA
- protein production: failed

Sequence: MSDLGDFADHGRDDDERGGDDDPAPADDDFDRPTLEATGSDDGLGALAVSEGLRIHEDGQETALKAYVTAGNRAAVRLGTYLVAPYPGGETLFCKITGLEYVQAFESDDATEIHARRAMRSDGVDEADYKFLAELDPVAVLSDEGDDITRRMPDRVPKPETVVRAADDAAEIKAGLKIPADGVFLGHLSVGGEKVRTAADPPTIDYRVKDGYEAGDPLVFRHTLIAGGTGSGKTHAAKNVLRQYLHEDRRYPVDSGGPERRMAVVQFDPQDEYAQMHDDNPDADASDRRQWETQGLAYGGHDDTVAFVPTVGSASYAADHHAAEQVAFTVPFSMVRDNPWLVASSGLNDNQYGALHLLLDRFFGQYGESGTYREFCAFLDDPALKEELDESGRVHEATYEAVLRRVNGMPNGLFDQDARSITALVEDREFVQPGRLSVVPTYHISNSRAAETVVLAVSSLLVDQKLSNDPRYDAIKRTPLLVGMDEAHNFLSDADSVQARKVVGKFTEAAKQGRKERLGLFLITQDPQDIAGPVFKQVNTTVVLNLGDEDAIQAVNIPATLQSKVPYMNTGQMVVYSPDNSEPVEVQGLATCVTRHGRD
- protein production: failed

Sequence: MDNWQDITDDRLVRPIHPGEVIADILDDLDINTANFAEILGVSNQTIQEVINGQRSITVDIAIRLGKALGNGPRLWLNLQQKVDLWYALQSHKEEYEQVMTLV
- protein production: not failed

Sequence: MDVSFEFEHYQVRLIKSSDAVTIANYFMRNRHHLAPWEPKRSHAFFTPEGWKQRLLQLVELHKHNLAFYFVVVDKNEHKIIGTVSYSNITRFPFHAGHVGYSLDSEYQGKGIMRRAVNVTIDWMFKAQNLHRIMAAYIPRNEKSAKVLAALGFVKEGEAKKYLYINGAWEDHILTSKINDDWKPE
- protein production: failed

Sequence: MNTLEIAKEVFEKEAQAILDLATNLDENFNQAVNLMLNTKGRCIVSGMGKSGHIGAKIAATLASTGTPSFFIHPGEALHGDLGMLTSEDVLIAISNSGETEEILKIIPAIKKREIPLIVMCGKKNSTLVKQGDIFLNIAVEKEACPLQLAPMSSTTATLVMGDALAAALMKVRNFKPDDFALFHPGGSLGRKLLTKVKDLMVSSNLPIVHPDTEFNDLVDVMTSGKLGLCVVLENEKLVGIITDGDLRRALKASDKPRFDFKAKEIMSINPKVVDADAMASEAEGIMLKHKIKEIIVGKEEKVVGIIQLYAIGNV
- protein production: not failed

Sequence: NKKIYVGMTADIMHPGLIHIIHEATKYGDVIVGLLTDKAIAEHKRLPYLTYDQRKEVVENIKGVCEVVPQEDWSYVPNLEKLKPDYIIHGDDWKTGPLREVREQVFEVMNAQGGKVIEIPYTRGINSSSLDKDIKAIGT
- protein production: failed

Sequence: MIERGRLGAASRRRATSAHGPIQTTVFMSSGIVFHAVAALAYAVLAGSLWRRLQGRGSVDQASKLTRTGLLGALALHGVALQQAMLGTQHLYIGWALALSAAVWLGLVVFWLESLLIRIDGLQLLLLPAAAIVTAIAALFPQAQLVPHANNPWLRAHLLIALAAYGLITIAALHAMLIALLDRHLHRPLDAPAERSIVGRVLDAQPPLLVQERLLFRVIWIGFVVLTLAVGSGSVASITLTGKFLPFDHKTIFTLLSWATFGVLLLGRHIRGWRGRVALRWTLTGFAFLILAYTGSRFVLEVILHRG
- protein production: failed

Sequence: MTTPSASTRAVLEEACLSVGLDTTNAQPIRIAENAVWRLPGGVVVRVARPGQSAAAAREVQVARWLTAEGVPAVRALDLPQPVAASGHPVTFWQELPPHEIGTVTDVVVLLKQLHALPKPDLPLGELDPFVRLVERIDAAITISDDDQLWLKHRLEDLKQQWASRPKGLPECVVHGDAWVGNVARTEAGPMLLDFERASFGPPEWDLVSTAVKLTTTGAVSAEEYAAFCETYGVDVTEWEGYELLANARELRMVTYAAQHAASRPEWRREAQYRIDCLRGRAGAPPWRWKGII
- protein production: failed

Sequence: MKTIRLWDLPTRLFHWLLVIAVVGAVATVKLGAGWMAWHERFGLAVVGLLAFRVVWGLVGSTYARFSQFISGPGAMIRYLRGQWQGAGHNPLGAWSVLLLLGLFGFQAVTGLFANDEIAFNGPLYRLVSSGWSDTLSSWHRLMEWGLYAVVALHVLAVLFYTHVRKDNLIKPMVTGRKQVQSSELKDASGGGWLAMIIALAIAVAVVWAASGGLIPPPPPPPQNLGW
- protein production: failed
